# Data reported in patent publication US20040152079A1.
# Target: PMN receptor for mini TyrRS (on human PMNs) (human)
# Assay: competition with ^125I-mini TyrRS on human PMNs (FIG. 10)
substance,measurement,value
S. cerevisiae TyrRS (from UniProt P36421 1-394) (enzyme),fold of the dissociation constant against human mini TyrRS,< 200 fold
